Experimental data reported in paper PMC4017264 (Molecular Cell, 2014).
No end group written: not given here. *: point of attachment. FITC = O=C1OC2(c3ccc(O)cc3Oc3cc(O)ccc32)c2ccc(NC(=S)*)cc21; Ahx = NCCCCCC(=O)O

How the values were obtained:
[1] = test system: endogenous LUBAC (HOIP, HOIL-1, SHARPIN); experiment: coimmunoprecipitation of endogenous LUBAC components with HA-tagged OTULIN; assay type: cell-based; settings: HA-OTULIN variants in HEK293T cells, anti-HA IP, western blot
Method: Transfected HEK293T or U2OS and NOD2 cells were lysed in the presence of protease and phosphatase inhibitors. Clarified lysates were incubated overnight with anti-V5 and anti-HA-agarose resin. […]
siOTULIN: […], siMM […]
Immunoprecipitation of HOIP-V5 and HA-OTULIN
HEK293T or U2OS/NOD2 cells were transfected as indicated. The cells were lysed in IP buffer buffer (25 mM HEPES pH 7.4, 150 mM KCl, 2 mM MgCl2, 1 mM EGTA, 0.5% (v/v) Triton X-100) supplemented with 5 mM NEM (Sigma-Aldrich), cOmplete protease inhibitor cocktail (Roche) and PhosSTOP
(Roche). After 30 minutes on ice, the lysates were cleared by centrifugation and incubated overnight at 4 °C with anti-V5-agarose resin or anti-HA-agarose resin. The beads were washed four times in ice-cold IP buffer and the precipitated material was eluted with 0.2 M glycine, pH 2.5. […]

[2] = test system: HOIP PUB domain (15N HOIP 1-184); experiment: NMR binding (chemical shift perturbation) to 15N-labeled HOIP PUB domain; parameters: species or system Human; settings: 15N BEST-TROSY NMR, 100 μM 15N HOIP 1-184, 20 mM phosphate pH 6.8, 50 mM NaCl, 2 mM DTT, 298K
Method: Standard triple-resonance experiments (HNCA, HN(CO)CA, HNCACB, CBCA(CO)NH, and HBHA(CO)NH) were acquired for the assignment of HOIP resonances. Constant time ^13C and ^13C-HSQC were acquired for the methyl and aromatic regions. In addition, (HB)CB(CGCD)HD and (HB)CB(CGCDCE)HE experiments coupled the Cβ of tyrosine resonances to the Hδ and Hε positions of the tyrosine ring, respectively.
(§1) Fluorescence polarization binding assays
10 µl of 100 nM FITC-Ahx peptides of either OTULIN (49-67) or p97 (797-806) were aliquoted into a 384-well low volume plate (Corning). Serial dilutions of HOIP PUB into FP assay buffer (20 mM Tris pH 7.4, 100 mM NaCl, 1 mM DTT) were prepared and 10 µl of this was aliquoted to FITC-Ahx peptide-containing wells. Fluorescence polarization was recorded on a PheraStar plate reader (BMG Labtech) using an optics module with $ex = 485 nm and $em = 520 nm. To derive binding constants (KD), polarization values were fitted to a one-site binding model using Graphpad Prism 5.
Nuclear Magnetic Resonance Spectroscopy
Uniformly labeled 15N or 13C, 15N samples of HOIP were prepared following growth in 2M9 medium supplemented with either 15N NH4Cl or 13C glucose.
Proteins were purified as described above and all samples were exchanged into NMR sample buffer (20 mM Na2HPO4/NaH2PO4 pH 6.8, 50 mM NaCl, 2 mM DTT). Lyophilized OTULIN and p97 PIM peptides were reconstituted in NMR sample buffer and the pH adjusted to pH 6.8 prior to use. NMR data were acquired at 298K on Bruker Avance III 600 MHz and Avance2+ 700
MHz spectrometers, equipped with cryogenic triple resonance TCI probes.
Standard triple resonance experiments (HNCA, HN(CO)CA, HNCACB, CBCA(CO)NH, HBHA(CO)NH) were acquired for the assignment of backbone
HOIP resonances. In addition, constant-time (ct) 13C and 13C-HSQC were acquired for the methyl and aromatic regions. For assignment of the H",H# resonances of HOIP tyrosines, (HB)CB(CGCD)HD and (HB)CB(CGCDCE)HE spectra were acquired, which coupled the C$ position of the tyrosine resonances to the H"/H# position of the tyrosine ring respectively. […]

[3] = target: T1, HOIP PUB domain (HOIP 1-184) (Homo sapiens, UniProt Q96EP0); experiment: fluorescence polarization binding of FITC-Ahx peptides to HOIP PUB domain
T1 construct: PUB domains from HOIP (aa 1–184, red); His6 (3C-cleavable, pOPINB) (N, cleaved yes); made in house; host or cells: E. coli Rosetta2 (DE3) pLacI
T1 sequence (Q96EP0 1-184): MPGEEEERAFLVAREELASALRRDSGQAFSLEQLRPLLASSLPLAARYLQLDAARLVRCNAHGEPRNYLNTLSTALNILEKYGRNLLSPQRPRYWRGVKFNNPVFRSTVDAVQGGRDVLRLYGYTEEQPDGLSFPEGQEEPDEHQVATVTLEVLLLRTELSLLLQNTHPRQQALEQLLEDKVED
Method: Serially diluted PUB domains and HOIP variants were mixed with an equal volume of 100 nM FITC-Ahx-labeled peptides of OTULIN and p97. Fluorescence polarization was recorded on a PheraStar plate reader (BMG LABTECH) and fitted to a one-site binding model with GraphPad Prism 5.
as §1
10 µl of 100 nM FITC-Ahx peptides of either OTULIN (49-67) or p97 (797-806) were aliquoted into a 384-well low volume plate (Corning). Serial dilutions of HOIP PUB into FP assay buffer (20 mM Tris pH 7.4, 100 mM NaCl, 1 mM DTT) were prepared and 10 µl of this was aliquoted to FITC-Ahx peptide-containing wells. Fluorescence polarization was recorded on a PheraStar plate reader (BMG Labtech) using an optics module with $ex = 485 nm and $em = 520 nm. To derive binding constants (KD), polarization values were fitted to a one-site binding model using Graphpad Prism 5. […]

[4] = target: T2, HOIP extended PUB domain (aa 1–184) (UniProt Q96EP0 1-184); experiment: FP
T2 chain: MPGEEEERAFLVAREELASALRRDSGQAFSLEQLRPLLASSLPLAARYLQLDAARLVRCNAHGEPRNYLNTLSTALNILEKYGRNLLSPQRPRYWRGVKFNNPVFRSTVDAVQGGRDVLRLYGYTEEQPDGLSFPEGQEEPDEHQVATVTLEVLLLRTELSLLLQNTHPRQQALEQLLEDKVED

[5] = target: T3, HOIP extended PUB domain (aa 1–184) (UniProt Q96EP0 1-184); experiment: fluorescence polarisation; serially diluted PUB domains and HOIP variants mixed with an equal volume of 100 nM FITC-Ahx-labeled peptide; one-site binding model; triplicate; settings: both partners purified
T3 construct: 15N- or 13C,15N-labelled for NMR; Construct details are in the Supplemental Experimental Procedures; also called HOIP PUB domain
T3 sequence (looked up): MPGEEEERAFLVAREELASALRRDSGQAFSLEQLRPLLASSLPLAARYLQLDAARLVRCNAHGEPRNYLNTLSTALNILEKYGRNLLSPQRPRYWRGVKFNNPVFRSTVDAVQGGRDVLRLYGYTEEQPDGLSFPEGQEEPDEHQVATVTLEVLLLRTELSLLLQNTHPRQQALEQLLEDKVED

[6] = target: T4, PNGase PUB domain R55A (UniProt Q96IV0 11-109, Arg55 was mutated to Ala); experiment: as above; settings: both partners purified
T4 construct: PNGase PUB domain with Arg55 mutated to Ala; also called PNGase mutant; Arg55 mutated to Ala
T4 sequence (looked up): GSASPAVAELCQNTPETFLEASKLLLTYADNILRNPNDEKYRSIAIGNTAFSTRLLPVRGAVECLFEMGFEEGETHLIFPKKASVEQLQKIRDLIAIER

## OTULIN D54A: HA-tagged full-length OTULIN with PIM point mutation D54A
[1]
  coimmunoprecipitation of endogenous LUBAC components (in words): Residual binding was still observed

## OTULIN 49-67: unlabeled OTULIN PIM peptide (aa 49–67) used in NMR and crystallization (AEHEEDMYRAADEIEKEKE)
[2]
  binding / chemical shift perturbations of HOIP PUB domain (in words): CSPs and loss of a large number of resonances, a feature common to slow exchange

## OTULIN Y56F: HA-tagged full-length OTULIN with PIM point mutation Y56F
[1]
  coimmunoprecipitation of endogenous LUBAC components (in words): abrogated binding

## OTULIN Y56A: HA-tagged full-length OTULIN with PIM point mutation Y56A
[1]
  coimmunoprecipitation of endogenous LUBAC components (in words): abrogated binding

## M55D: fluorescently labeled OTULIN peptide (aa 49–67) with point mutation M55D ({FITC-Ahx}-AEHEEDDYRAADEIEKEKE)
[3]
  binding to HOIP PUB domain (in words): abrogated binding

## D54A: fluorescently labeled OTULIN peptide (aa 49–67) with point mutation D54A ({FITC-Ahx}-AEHEEAMYRAADEIEKEKE)
[3]; OTULIN peptide point mutants
  reduction of HOIP binding versus wild-type OTULIN peptide: 60 fold

## OTULIN Y56E: HA-tagged full-length OTULIN with PIM point mutation Y56E
[1]
  coimmunoprecipitation of endogenous LUBAC components (in words): abrogated binding

## AEHEEDMFRAADEIEKEKE (not fully specified (N-terminus)) [fluorescently labeled OTULIN peptide (aa 49–67) Y56F]
[4]
  Kd: 64.5 µM

B1: fluorescently labeled OTULIN PIM peptide (aa 49–67) M55L (peptide, UniProt Q96BN8 49-67, looked up)
peptide: {FITC-Ahx}-AEHEEDLYRAADEIEKEKE
notes: OTULIN, residues 49-67, Met55 exchanged to Leu (as in p97); also called OTULIN M55L PIM peptide
[5]
  Kd: 370 nM
[6]
  Kd: 5 µM

B2: OTU domain: OTULIN catalytic (OTU) domain (aa 80–352) (protein)
chain: LSVAPEMDIMDYCKKEWRGNTQKATCMKMGYEEVSQKFTSIRRVRGDNYCALRATLFQAMSQAVGLPPWLQDPELMLLPEKLISKYNWIKQWKLGLKFDGKNEDLVDKIKESLTLLRKKWAGLAEMRTAEARQIACDELFTNEAEEYSLYEAVKFLMLNRAIELYNDKEKGKEVPFFSVLLFARDTSNDPGQLLRNHLNQVGHTGGLEQVEMFLLAYAVRHTIQVYRLSKYNTEEFITVYPTDPPKDWPVVTLIAEDDRHYNIPVRVCEETSL
modifications: left off: His6 (from the vector pOPINB), end not stated, state not stated
[2]
  binding / chemical shift perturbations of HOIP PUB domain (in words): did not interact with the HOIP PUB domain

## {FITC-Ahx}-AEHEEAMYRAADEIEKEKE [fluorescently labeled OTULIN peptide (aa 49–67) D54A]
[4]
  Kd: 11.2 µM

## {FITC-Ahx}-AEHEEDMWRAADEIEKEKE [fluorescently labeled OTULIN peptide (aa 49–67) Y56W]
[4]
  Kd: 21.3 µM
